Reference: PMC2852410, “Shared Active Site Architecture between the Large Subunit of Eukaryotic Primase and DNA Photolyase”

Columns and labels:
[1] = target: T1, DNA primase large subunit PriL, full length;DNA primase small subunit PriS (Saccharomyces cerevisiae;Saccharomyces …, UniProt P20457;P10363 1-528;1-409, |); test: fluorescence anisotropy; 20 nM DNA; Buffer F: 20 mM HEPES pH 6.8, 150 mM KCl, 1 mM EDTA, 25 C; SPR in buffer F + 0.005% P20, 25 C; settings: protein: recombinant;recombinant; tags: ;; copies: 1;1; label: fluorescein; single strand
T1 sequence 1: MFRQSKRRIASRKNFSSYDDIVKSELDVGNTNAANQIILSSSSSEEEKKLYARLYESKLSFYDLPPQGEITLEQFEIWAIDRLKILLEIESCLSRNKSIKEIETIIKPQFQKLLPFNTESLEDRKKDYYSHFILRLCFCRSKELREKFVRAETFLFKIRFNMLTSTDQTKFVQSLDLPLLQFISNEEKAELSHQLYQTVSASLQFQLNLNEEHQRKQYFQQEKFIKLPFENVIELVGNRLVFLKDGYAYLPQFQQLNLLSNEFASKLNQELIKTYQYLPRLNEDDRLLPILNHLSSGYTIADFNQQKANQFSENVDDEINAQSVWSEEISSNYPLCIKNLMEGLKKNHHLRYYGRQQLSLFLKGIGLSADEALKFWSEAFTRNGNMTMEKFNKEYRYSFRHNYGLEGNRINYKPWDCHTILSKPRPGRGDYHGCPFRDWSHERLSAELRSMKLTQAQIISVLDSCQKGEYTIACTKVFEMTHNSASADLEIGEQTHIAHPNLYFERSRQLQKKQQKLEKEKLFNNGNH
T1 sequence 2: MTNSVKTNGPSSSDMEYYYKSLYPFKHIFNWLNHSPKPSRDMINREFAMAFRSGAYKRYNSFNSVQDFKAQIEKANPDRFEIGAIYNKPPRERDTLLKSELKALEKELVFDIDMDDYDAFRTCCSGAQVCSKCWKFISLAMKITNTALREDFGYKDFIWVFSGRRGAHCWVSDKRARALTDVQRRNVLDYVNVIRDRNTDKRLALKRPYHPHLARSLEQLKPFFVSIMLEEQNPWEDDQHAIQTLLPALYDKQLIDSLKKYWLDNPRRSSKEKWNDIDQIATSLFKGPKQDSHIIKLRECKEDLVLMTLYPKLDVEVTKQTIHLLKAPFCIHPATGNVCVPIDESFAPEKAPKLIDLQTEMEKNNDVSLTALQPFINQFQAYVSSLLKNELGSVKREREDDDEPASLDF

PriL-CTD [2] = target: T2, PriL-CTD (Saccharomyces cerevisiae, UniProt P20457 316-512, del381-383); test: fluorescence anisotropy; 80 nM DNA; Buffer F: 20 mM HEPES pH 6.8, 150 mM KCl, 1 mM EDTA, 25 C; SPR in buffer F + 0.005% P20, 25 C; settings: protein: recombinant, tags: N-terminal His6, removed by TEV
T2 sequence: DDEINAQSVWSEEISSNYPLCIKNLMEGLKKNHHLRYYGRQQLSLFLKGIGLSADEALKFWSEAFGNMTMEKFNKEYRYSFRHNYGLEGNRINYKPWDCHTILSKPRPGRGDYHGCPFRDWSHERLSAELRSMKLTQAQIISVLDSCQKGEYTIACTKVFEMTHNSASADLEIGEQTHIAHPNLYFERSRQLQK

PriL-CTD [3] = target: T2, PriL-CTD; test: fluorescence anisotropy; Kd similar to the 70 µM of the mixed 20mer; data not shown; Buffer F: 20 mM HEPES pH 6.8, 150 mM KCl, 1 mM EDTA, 25 C; SPR in buffer F + 0.005% P20, 25 C; settings: protein: recombinant; tags: N-terminal His6, removed by TEV; label: fluorescein; single strand

B1: poly(dT) 40mer (ssDNA)
DNA: TTTTTTTTTTTTTTTTTTTTTTTTTTTTTTTTTTTTTTTT
- Kd [1]: 1.7 µM

B2: ssDNA 20mer (fluorescein) (ssDNA)
DNA: GGTGAGAGGAGAATGGAAGT
- Kd (PriL-CTD [2]; label: 5' fluorescein, single strand): 70 ± 0.2 µM

B3: poly(dT) 20mer (ssDNA)
DNA: TTTTTTTTTTTTTTTTTTTT
- binding result (PriL-CTD [3]): binds

B4: dsDNA 20mer (fluorescein) (dsDNA)
DNA 1: GGTGAGAGGAGAATGGAAGT
DNA 2: ACTTCCATTCTCCTCTCACC
- Kd (PriL-CTD [2]; label: 5' fluorescein on S2, the printed complement S1 carries 5' biotin, blunt): 178 ± 1.3 µM
